In US20170233485A1 (published 2017) one finds EC50 and IC50 data, which are given here for two molecules.

Assay [1] has as its target T1, human CD40 (cell surface) (UniProt P25942 20-277). In words: flow cytometry; 4-P fit parameter C.
The target of assay [2] is T1, human CD40 (cell surface). Nature of the assay: flow cytometry, CHO-CD40; avid.
The target in assay [3] is T2, rhesus monkey CD40 (cell surface) (rhesus monkey, UniProt F6SNI1 21-278).
T2 chain: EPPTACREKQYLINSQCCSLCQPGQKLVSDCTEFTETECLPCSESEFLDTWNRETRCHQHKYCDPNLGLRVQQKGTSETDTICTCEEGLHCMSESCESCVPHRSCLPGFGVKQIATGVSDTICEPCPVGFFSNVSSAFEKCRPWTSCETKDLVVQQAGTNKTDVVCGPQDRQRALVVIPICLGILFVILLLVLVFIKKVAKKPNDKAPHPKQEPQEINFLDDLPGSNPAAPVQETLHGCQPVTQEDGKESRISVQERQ
In words: flow cytometry, CHO-CD40; avid.

Assay [4] deals with T3, cynomolgus monkey CD40 (cell surface).
T3 chain: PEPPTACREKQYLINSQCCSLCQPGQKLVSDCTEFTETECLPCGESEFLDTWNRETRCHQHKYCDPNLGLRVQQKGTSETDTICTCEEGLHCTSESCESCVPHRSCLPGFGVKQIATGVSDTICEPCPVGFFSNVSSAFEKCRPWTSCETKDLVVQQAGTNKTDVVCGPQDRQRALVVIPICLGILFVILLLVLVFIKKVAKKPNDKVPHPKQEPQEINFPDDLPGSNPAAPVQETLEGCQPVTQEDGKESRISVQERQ
Nature of the assay: flow cytometry, CHO-CD40; avid.

The target in assay [5] is T1, human CD40 (cell surface). Nature of the assay: flow cytometry, B cells in whole blood; A647-conjugated.
For assay [6], the target named is T1, human CD40 (cell surface). In words: flow cytometry, B cells in whole blood; geometric mean, A647-conjugated.
Assay [7] deals with T3, cynomolgus monkey CD40 (cell surface). The assay is described as above.
The target of assay [8] is T4, human FcγR CD32b-GST fusion protein (human, UniProt P31994 43-217).
T4 chain: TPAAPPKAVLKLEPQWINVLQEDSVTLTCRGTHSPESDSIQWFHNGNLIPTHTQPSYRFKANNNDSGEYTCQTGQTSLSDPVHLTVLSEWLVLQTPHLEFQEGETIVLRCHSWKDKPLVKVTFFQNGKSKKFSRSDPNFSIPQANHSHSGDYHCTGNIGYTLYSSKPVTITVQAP
In words: ALPHAscreen competition.

Assay [9] concerns the target T5, human FcγR CD64-GST fusion protein (human, UniProt P12314 16-292).
T5 chain: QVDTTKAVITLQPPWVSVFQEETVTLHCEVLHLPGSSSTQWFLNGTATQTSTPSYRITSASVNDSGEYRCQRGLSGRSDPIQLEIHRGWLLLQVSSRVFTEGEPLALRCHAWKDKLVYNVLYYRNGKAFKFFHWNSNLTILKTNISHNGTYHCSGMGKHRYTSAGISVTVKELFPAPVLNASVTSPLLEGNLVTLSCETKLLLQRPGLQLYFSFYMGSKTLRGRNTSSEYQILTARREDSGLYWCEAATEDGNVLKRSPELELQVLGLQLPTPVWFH
Nature of the assay: ALPHAscreen competition.

Assay [10] has as its target human FcγR CD16a V158-GST fusion protein (human, UniProt P08637 17-208). In words: ALPHAscreen competition.
Assay [11] addresses T6, human FcγR CD32a R131-GST fusion protein (human, UniProt P12318 34-217).
T6 chain: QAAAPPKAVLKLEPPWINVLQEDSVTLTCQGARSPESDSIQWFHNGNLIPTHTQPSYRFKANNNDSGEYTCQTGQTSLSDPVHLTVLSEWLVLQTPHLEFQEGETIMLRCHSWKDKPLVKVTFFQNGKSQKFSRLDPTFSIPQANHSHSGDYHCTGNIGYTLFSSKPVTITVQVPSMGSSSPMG
Nature of the assay: ALPHAscreen competition.

Sequence of human FcγR CD16a V158-GST fusion protein (P08637 17-208 F176V): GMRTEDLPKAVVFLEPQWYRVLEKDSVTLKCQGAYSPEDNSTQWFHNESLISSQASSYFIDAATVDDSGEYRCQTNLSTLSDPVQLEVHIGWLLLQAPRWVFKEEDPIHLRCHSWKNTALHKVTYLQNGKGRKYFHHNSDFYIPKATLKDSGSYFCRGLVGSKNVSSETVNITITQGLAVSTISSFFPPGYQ

B1: Agly hAKH3 IgG4P/IgG1 (antibody, V domains shown)
VH: EVQLVQSGAEVKKPGASVKVSCKASGYTFTTFPIEWVRQAPGQGLEWMGNFHPYNDDTKYNEKFKGRVTLTADKSTSTAYMELSRLRSEDTAVYYCARRGKLPFDSWGQGTTVTVSS
VL: DIQMTQSPSSLSASVGDRVTISCRASQDISNYLNWYQQKPGKVPKLLIYFTSRLRSGVPSRFSGSGSGTDYTLTISSLQPEDVATYYCQQDRKLPWTFGQGTKLEIK
For B1, the EC50 in assay [1] came out at 0.0804 µg/mL; in assay [2], 0.0895 µg/mL; in [3] it was 0.249 µg/mL; in assay [4], 0.131 µg/mL; in assay [5] it was 0.0777 µg/mL; in assay [6] it was 0.0626 µg/mL. Moreover, in assay [7], the EC50 was found to be 0.109 µg/mL.

B2: Exemplary Anti-CD40 Antibody 1 (antibody)
heavy: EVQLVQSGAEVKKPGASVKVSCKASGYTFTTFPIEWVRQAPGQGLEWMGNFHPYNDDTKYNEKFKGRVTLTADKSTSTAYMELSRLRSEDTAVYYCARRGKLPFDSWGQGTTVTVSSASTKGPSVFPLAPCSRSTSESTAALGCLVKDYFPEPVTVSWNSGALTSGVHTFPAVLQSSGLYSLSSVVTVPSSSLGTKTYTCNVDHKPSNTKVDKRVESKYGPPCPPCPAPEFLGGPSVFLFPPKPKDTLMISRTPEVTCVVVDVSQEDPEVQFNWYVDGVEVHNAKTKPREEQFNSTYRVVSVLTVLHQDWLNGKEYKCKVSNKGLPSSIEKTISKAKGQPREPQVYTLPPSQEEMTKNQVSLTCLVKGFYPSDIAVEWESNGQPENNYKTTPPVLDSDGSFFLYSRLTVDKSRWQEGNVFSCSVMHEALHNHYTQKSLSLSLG
light: DIQMTQSPSSLSASVGDRVTISCRASQDISNYLNWYQQKPGKVPKLLIYFTSRLRSGVPSRFSGSGSGTDYTLTISSLQPEDVATYYCQQDRKLPWTFGQGTKLEIKRTVAAPSVFIFPPSDEQLKSGTASVVCLLNNFYPREAKVQWKVDNALQSGNSQESVTEQDSKDSTYSLSSTLTLSKADYEKHKVYACEVTHQGLSSPVTKSFNRGEC
modifications: Alexa647 conjugate in some whole-blood assays; N-linked glycan on the heavy chain; neither is carried by the letters.
Regarding B2, the IC50 in assay [8] stood at 282 µg/mL; in assay [9] it was 14.7 µg/mL; in [10] it was 680 µg/mL; in assay [11] it was 118 µg/mL.
